Changes are numbered by the printed parent chain. Blank lines part the entries; values can stand above or below the binder they belong to.
Assays:
human FcRn (hFcRn) [1] = molecular target: T1, human FcRn (hFcRn) (human, UniProt P55899 24-297; P16213 21-119, limits assumed); test: SPR (Biacore 3000), antibody amine-coupled on CM5, hFcRn analyte, pH 6.0, 25 C, 1:1 model
T1 construct: hFcRn was the soluble analyte in SPR; also called FcRn analyte
Experimental: SPR measurements were performed using a Biacore 3000. […] The sensor chip surface was regenerated with a 30 sec pulse of 10 mM glycine pH 1.5 at a flow rate of […] followed by a 15 second pulse of buffer. Measurements were performed at 25° C. using HBS-P as the running buffer. The reference flow cell was activated and blocked in a mock amine coupling reaction. The data was fit to a 1:1 binding model using Biaevalution v.4.1 software.

human FcRn (hFcRn) [2] = molecular target: T1, human FcRn (hFcRn); test: SPR (Biacore 3000), antibody amine-coupled on CM5, hFcRn analyte, pH 7.5, 25 C, 1:1 model

- Kd (human FcRn (hFcRn) [1]): 1.8 nM
- Kd (human FcRn (hFcRn) [2]): 2 nM
- kon (human FcRn (hFcRn) [2]): 110000 M⁻¹ s⁻¹
B1: 532A-X54-B03 (cys to ala mutant of DX-2504) (antibody, V domains shown)
VH: EVQLLESGGGLVQPGGSLRLSCAASGFTFSEYAMGWVRQAPGKGLEWVSSIGSSGGQTKYADSVKGRFTISRDNSKNTLYLQMNSLRAEDTAVYYCARLAIGDSYWGQGTMVTVSS
VL: QSALTQPASVSGSPGQSITISCTGTGSDVGSYNLVSWYQQHPGKAPKLMIYGDSQRPSGVSNRFSGSKSGNTASLTISGLQAEDEADYYCASYAGSGIYVFGTGTKVTVL
notes: also called 532-X54-B03; 532A-X53-B03

- Kd (human FcRn (hFcRn) [1]): 1.4 nM
- koff (human FcRn (hFcRn) [1]): 0.00043 s⁻¹
- kon (human FcRn (hFcRn) [1]): 310000 M⁻¹ s⁻¹
- Kd (human FcRn (hFcRn) [2]): 1.7 nM
- koff (human FcRn (hFcRn) [2]): 0.00032 s⁻¹
- kon (human FcRn (hFcRn) [2]): 190000 M⁻¹ s⁻¹
B2: 532A-X53-C02 (cys to ser mutant of DX-2504) (antibody, V domains shown)
VH: B1 VH
VL: B1 VL with A91S
notes: also called C54-C02

- Kd (human FcRn (hFcRn) [1]): 1.5 nM
- koff (human FcRn (hFcRn) [1]): 0.00035 s⁻¹
- kon (human FcRn (hFcRn) [1]): 240000 M⁻¹ s⁻¹
- Kd (human FcRn (hFcRn) [2]): 1.9 nM
- koff (human FcRn (hFcRn) [2]): 0.00028 s⁻¹
- kon (human FcRn (hFcRn) [2]): 150000 M⁻¹ s⁻¹
B3: DX-2504 anti-FcRn antibody (antibody, human IgG1, lambda)
heavy: not shown
light: QSALTQPASVSGSPGQSITISCTGTGSDVGSYNLVSWYQQHPGKAPKLMIYGDSQRPSGVSNRFSGSKSGNTASLTISGLQAEDEADYYCCSYAGSGIYVFGTGTKVTVLGQPKANPTVTLFPPSSEELQANKATLVCLISDFYPGAVTVAWKADGSPVKAGVETTKPSKQSNNKYAASSYLSLTPEQWKSHRSYSCQVTHEGSTVEKTVAPTECS
notes: It was immobilized by amine coupling in the SPR assay

Source: patent US20160304608A1 (published 2016)
